The values that follow are results of earlier work, collected in article PMC8466385.

The target of this series is Tyr411 (UniProt position 435, ALLVRYTKKVP). The series is described as follows: kinetics. The conditions noted are these: not stated for the pKa values (Table 1 footnote c gives 22.0 °C for kinetic parameters from the same reference).

A word on the pKa: it is the pH at which an ionisable group is half protonated. “Human serum albumin (HSA) (Homo sapiens)”: the pKa is, setting by setting: (HSA:NphODe (p-nitrophenyl decanoate) substrate complex) 7.0; (HSA:NphOHe (p-nitrophenyl hexanoate) substrate complex) 7.6; (substrate-free HSA) 8.9.
